Data reported in US7919292B2, “Producing hydrogen by heterologous expression of a type II NAD (P)H dehydrogenase in Chlamydomonas” (Commissariat a l'Energie Atomique, priority 2004, dated 2011).
Where two headings read alike, the source gives them in different places.

B1: Agrobacterium NDH-II: type II NAD(P)H dehydrogenase from Agrobacterium tumefaciens, SEQ ID NO: 2, purified with 6His tag (protein, listed as Agrobacterium tumefaciens)
chain: MQEHHVVVVGGGFGGLQLVHGLEGAPVRITLIDRRNHHLFQPLLYQVATTALATSEIAWPIRHLYRDRKEVTTLLAEVTGVDRAARTVQLNSGQVIGFDTLVLATGARHAYFGHDEWERSAPGLKTLEDATTIRRRLLLAFERAELATSEEERQALLTFVIIGAGPTGVEMAGMIAELAHRALPAEFRNVDTRKTRVLLVEAGPRVLPVFTEDLSTYAKEALEKLGVEVLLGTPVTACTDEGVTVGETYYPCRTVVWAAGVQASPAAKWLNAAGDRAGRVIVGPQLHLEDDADIFVIGDTAAVNQENGKPVPGIAPAAKQQGAYVAKVIKARLEGKPIPAPFRYSHQGNLATIGKRAAVIDFGRFKLKGVLAWWIWGLAHIYFLIGTRSRLAVAWSWLWIYLSGQHSARLITQKETLKDEA
modifications: 6His tag

What was measured:
[1] = molecular target: Agrobacterium tumefaciens NDH-II (Agrobacterium fabrum (Agrobacterium tumefaciens), UniProt Q7CY19); test: biochemical
Procedure: The activity of the Agrobacterium tumefaciens NDH-II was assayed using membranes from an E. coli strain deficient in NDH-I and NDH-II (ndh::tet; nuoB::nptl).
The cells were then collected by centrifugation (15 min, 3200×g) and washed twice with 10 ml of solution containing 200 mM Tris-Cl, pH 8, 2.5 mM EDTA and 0.2 mM PMSF. They were then ruptured by passing them twice through a French press at the pressure of 16 000 psi.
The membrane fraction was recovered by centrifugation (30 min, 48 500×g) and resuspended in 200 μl of analysis buffer (50 mM of phosphate buffer, pH 7.5, and 150 mM NaCl).
The O2 consumption of the E. coli ANN0222 membranes was measured by means of a Clark electrode (DW2/2, Hansatech, King's Lynn, England). After addition of the purified enzyme, this method made it possible to determine its specific activity. […]
In order to measure only the membrane-linked respiratory oxidase activity, catalase (1000 U/ml) and superoxide dismutase (SOD) (500 U/ml) were added to the reaction mixture. […] The inhibition kinetics were determined in the presence of 200 μM of NADH or of 2 mM of NADPH.

[2] = test system: Chlamydomonas reinhardtii plastoquinones; test: Plastoquinone reduction measured by chlorophyll fluorescence on thylakoid membranes; type: biochemical; conditions: NDH-II 1.5 μg·ml^−1, 200 μM NADH, anaerobic
Procedure: The plastoquinone-reducing activity by the Agrobacterium NDH-II was analyzed by measuring chlorophyll fluorescence. In the presence of a weak nonactinic illumination, the measurement of chlorophyll fluorescence provides an indication of the plastoquinone redox state.
(§1) A culture of 200 ml of Chlamydomonas reinhardtii (wild-type 137c) was sampled in the exponential growth phase (approximately 5×10^6 cells·ml^−1), and then centrifuged (5 min, 1000×g). The cells were washed in 35 mM HEPES-NaOH buffer (pH 7.2), resuspended in 10 ml of lysis buffer (50 mM tricine-NaOH, pH 8, 10 mM NaCl, 5 mM MgCl2, 1% BSA, 1 mM benzamidine and 1 mM PMSF) and stored in the cold and in the dark for the following steps.
The suspension was passed through a French press twice, at 2000 psi. […]
The photosystem II fluorescence was measured using a modulated light fluorimeter (PAM 101-103, Walz, Effeltrich, Germany).
A nonactinic modulated light (650 nm, 1.6 kHz) was used to determine the level of chlorophyll fluorescence F0. The maximum level of the chlorophyll fluorescence Fm was measured under a saturating flash of 1 second (approximately 1000 μmol photons·m^−2·s^−1). […]

[3] = test system: Chlamydomonas thylakoids; test: Photo-induced DNP-INT-sensitive oxygen uptake of Chlamydomonas thylakoids (electron transport from NAD(P)H to the photosynthetic chain); type: biochemical, Chlamydomonas reinhardtii
Procedure: as §1
The suspension was passed through a French press twice, at 2000 psi. The lysate was first centrifuged (5 min, 4° C., 500×g) in order to remove the unlysed cells, and the thylakoid membranes were then pelleted at 10 000×g for 10 min and resuspended in 250 to 500 μl of analysis buffer (50 mM tricine-NaOH, pH 7.2, 10 mM NaCl and 5 mM MgCl2).
In order to quantify this effect of the Agrobacterium NDH-II on the electron flow from NAD(P)H to the acceptors of PSI, oxygen consumption measurements were carried out in the presence of methyl viologen (an acceptor of PSI), of DCMU (an inhibitor of PSII) and of an NADH (200 μM) or NADPH (2 mM) electron donor.
The Chlamydomonas thylakoids (50 μl, corresponding to 85 μg·ml^−1 of chlorophyll) are placed in a Clark electrode containing 900 μl of analysis buffer (50 mM tricine-NaOH, pH 7.2, 10 mM NaCl and 5 mM MgCl2, 25 μM DCMU, 50 μM methyl viologen, SOD (500 U·ml^−1), catalase (1000 U·ml^−1), 4 μM of myxothiazol and 800 μM of SHAM (salicylhydroxamic acid). The latter two compounds are added in order to inhibit respiratory O2 uptake.
Under these conditions, the fraction of the photo-induced oxygen uptake sensitive to DNP-INT (2-iodo-6-isopropyl-3-methyl-2′,4,4′-trinitrodiphenyl ether; 10 μM), an inhibitor of cytochrome b6f, is proportional to the electron transport between the NAD(P)H and the photosynthetic chain.

[4] = test system: E. coli strain ANN.0222; test: Complementation-growth test of NDH-deficient E. coli; type: cell-based; conditions: M9 + mannitol
Procedure: The functionality of the Agtundh2 protein in vivo in a heterologous host was tested by determining its capacity to restore the growth of a mutant E. coli strain, ANN.0222, deficient in NDH-1 and in NDH-2. This strain grows normally on LB medium, but is incapable of growing on minimum medium M9 supplemented with mannitol as the sole carbon source.
The E. coli strain ANN.0222 was chemically transformed (CaCl2) with the plasmid pSDN2Ag6H. The transformants were selected on LB agar medium (supplemented with 1% tryptone, 0.5% of yeast extract and 0.5% NaCl, pH 7) containing ampicillin (100 μg/ml). The transformants and the strain of origin were cultured until the middle of the exponential phase at 37° C. in liquid LB medium containing ampicillin (100 μg/ml). The cells were rinsed with sterile M9 medium, supplemented with mannitol as the sole carbon source (1× M9 salts, 2×10^−3 M MgSO4, 10^−4 M CaCl2, 0.4% mannitol). The cells were then diluted in M9 medium/mannitol and inoculated on a solid M9/mannitol/agar medium containing ampicillin and various concentrations of IPTG. The Petri dishes were incubated at 37° C. for 2 days. As a control, the same cells were inoculated in parallel on dishes containing LB agar medium containing ampicillin and various concentrations of IPTG, and then incubated at 37° C. overnight. […]

[5] = Activity of wild-type and E201Q modified protein with NADH and NADPH; type: biochemical; conditions: FIG. 12
Procedure: The affinity of the modified protein for NADH and NADPH was determined.
The results are illustrated in FIG. 12.

[6] = test system: E. coli ANN0222 membranes; test: Enzymatic activity of purified NDH-II on bacterial membranes (O2 consumption, Clark electrode); type: biochemical; conditions: 25° C.; for Km: physiological pH
Procedure: In the next experiment, the capacity of this enzyme to transport electrons to the respiratory chain of E. coli was determined.

[7] = test system: E. coli ANN0222 membranes; test: Membrane NADH dehydrogenase activity of E. coli ANN0222 expressing Agtundh2 (O2 uptake); type: biochemical
Procedure: Two batches of E. coli ANN.0222 membrane fractions were prepared, from a culture of the control strain on LB medium and from a culture of the strain having incorporated the plasmid pSDN2Ag6H, cultured on LB medium in the presence of 0.1 mM IPTG. The cultures were carried out until an optical density of 1 at 600 nm was obtained. […] The cells were then ruptured by passing them through a French press twice, at 16 000 psi. The membrane fraction, collected by centrifugation (30 min, 4° C., 48,500×g), was taken up in 200 μl of buffer B (50 mM phosphate buffer, pH 7.5 and 150 mM NaCl).
The results are illustrated by FIG. 10B, which represents the O2 uptake, in the presence of NADH, of E. coli ANN0222 membranes prepared from the reference strain (control) and from the strain expressing Agtundh2.
To determine the catalytic efficiency of Agtundh2 expressed in E. coli, the specific activity was estimated from the amounts determined by Western blotting.
On the basis of the relative intensities of the signals obtained for the purified Agtundh2 protein and for the membrane fractions, the amount of Agtundh2 protein in the experiments illustrated by FIG. 10B was estimated at 0.6 μg protein. The maximum O2 uptakes under these conditions are thus estimated at 13.2/0.6=22 nmol O2 min^−1·μg^−1 protein, i.e. 44 nmol NADH min^−1·μg^−1 protein.

Molecule	IC50 [1]	increase in chlorophyll fluorescence (plastoquinone reduction) versus natural enzyme alone [2]	electron transport, NADH as donor ([3]; 1.5 μg purified NDH-II added, NADH 200 μM, without enzyme 21)	electron transport, NADPH as donor ([3]; 1.5 μg purified NDH-II added, NADPH 2 mM, without enzyme 20)	stimulation factor of electron transport, NADH ([3]; NADH to thylakoid plastoquinones)	stimulation factor of electron transport, NADPH ([3]; NADPH to thylakoid plastoquinones)	growth on minimal medium ([4]; absence of IPTG)	growth on minimal medium ([4]; induction with 0.1 mM IPTG)	activity with 200 μM NADH compared with 200 μM NADPH [5]	Km ([6]; read-out: Km for NADH)	Km ([6]; read-out: Km for NADPH)	maximum activity (Vmax) ([6]; purified enzyme plus E. coli ANN0222 membranes, pH 7.5)	specific activity as NADH ([7]; Agtundh2 expressed in E. coli membranes)	maximum O2 uptake (specific activity) ([7]; Agtundh2 expressed in E. coli membranes, protein amount estimated by Western blotting at 0.6 μg)	O2 uptake of membranes on addition of NADH ([7]; strain transformed with pSDN2Ag6H, 0.1 mM IPTG, control strain none detected)
c1ccc2c(c1)[I+]c1ccccc1-2 [DPI, diphenylene iodonium]	10 µM														
B1		more rapid and more intense	67 nmol·min^−1·mg^−1 chlorophyll	45 nmol·min^−1·mg^−1 chlorophyll	approximately 3	approximately 2	partial complementation	restored	clearly greater activity with 200 μM NADH	10 µM	50 µM	5 μmol O2·min^−1·mg^−1 protein	44 nmol NADH min^−1·μg^−1 protein	22 nmol O2 min^−1·μg^−1 protein	considerable O2 uptake
